# Experimental data reported in the nanobody polyreactivity screen of Harvey et al. (2022).
# Assay: yeast display, Sf9 membrane polyspecificity reagent, FACS + sequencing; frameworks hold sequencing errors
# In short: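 Genes from sorted yeast were amplified by colony PCR, read by MiSeq 2 × 250 sequencing and filtered on CDR length. These cells carried a synthetic nanobody library in Saccharomyces cerevisiae BJ5465 and were sorted by FACS into low and high (top ~1%) gates on anti-HA and streptavidin fluorescence. Polyreactivity is labelled according to the gate of origin.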
row,Sequence,polyreactivity (PSR sort gate)
1,QVQLVESGGGLVQAGGSLRLSCAASGITFTYYAMGWYRQAPGKERELVASITIGGGSTYYADSVKGRFTISRDNAKKTVYLQLNSLKPEYTAVYYCNAAFSVRHLYRYDYWGQGTQVTVSL,low polyreactivity
2,QVQLVESGGGLVQAGGSLRLSCAASGITFYGYAMGWYRQAPGQERELVAAISSRGGSTYYADSVKGRFTISRDNAKNTVYLQMNSLKPEDTAVYNCAAVYYTGEYYYWGQGTQVTVSS,high polyreactivity
3,QVQLVESGGGLVQAGGSLRLSCAASGITFYRYVMGWYRQAPGKERELVAAITTGDSTYYADSVKGRFTISRDNAKNTVYLLMNSLKPEDTAVYYCAAVYYSALANYDYWGQGTQVTVSS,low polyreactivity
4,QVQLVESGGGLVQAGGSLRLSCAASGRTFIFNAMGWYRQAPGKERELVAAISSGGGTNYADSVKGRFTISRDNAKNTVYLQMNSLKPEVTAVYYCAADPRDHYSYVYDGYKYDYWGQGTQVTVSS,low polyreactivity
5,QVQLVESGGGLVQAGGSLRLSCAASGFTFRGNAMGWYRQAPGKERELVAAITSSDDSTYYADSVKGRFTISRDNAKNTVYLQMNSLKPEDTAVYYCAVYFFSFWGQGTQVTVSS,low polyreactivity
6,QVHLVESGGGLVQAGGSLRLSCAASGLIFRRYAMGWYRQAPGKERELVAVISSGGRTYYADSVKGRFTISRDNAKNTVYLQMNSLKPEDTAVYYCAARTRSYWGTYGSYHYDYWGQGTQVTVSS,high polyreactivity
7,QVQLVESGGGLVQAGGSLRLSCAASGRIFRYNAMGWYRQAPGKERELVASINQRGGYTYYADSVKGRFTISRDNAKNTVYLQMNSLKPEDTAVYYCAADRPRGRETVYYWGQGTQVTVSS,high polyreactivity
8,QVQLVESGGGLVQAGGSLRLSCAASGFTFVGNAMGSYRQAPGKERELVAAITWSGGRTYYADSVKGRFTISRDNAKNTVYLQMNSLKPEDTAVYYCNKLVERWYGYWGQGTQVTVSS,high polyreactivity
9,QVQLVESGGGLVQAGGRLRLSCAASGITFTFNAMGWYRQAPGKERELVAAITWSGGSTIYADSVKGRFTFSRDNAKNTVYLQMNSQKPEDTAVYNCARDTELYVRWLDYWGQGSQVTVSS,low polyreactivity
10,QVQLVESGGGLVQAGGSLRLSCAASGFTFDRYTMGWYRQAPGKEWELVAVIRRGGSTYYADSVKGRFTISRDNAKNTVYLQMNSLKPEDTAVYYCNALSALAVEDGYWGQGTQVTVSS,low polyreactivity
11,QDQLVESGGGLVQAGGSLRLSCAASGSTFYIYAMGWNIQAPGKERELVAAISTTDGTTYYADSVKGRFTISRDNAKKTVYLQMNSLKPEDTAVYYCAAEWFGSVQPAYDYWGQVTQVTVSS,high polyreactivity
12,QVQLVDSGGGLVQAGGSLRLSCAASGRIFLVNALGGSRQAPGKERELVAAISYRSGRTYSADSVKGRFTISRDTAKNTVYLQMNSLIPEDTAVYYCAAYTNVADMDYWGQGTQVTVSS,high polyreactivity
13,QVQLVESGGGLVQAGGSLRLSCAASGFTFYIYAMGWYRQAPGKERELVAAINFRGGSTYYADSVKGRFTISRDNAKNTVYLQMNSLKPEDTAVYYCAARSRDKYDYWGQGTQVTVSS,high polyreactivity
14,QVQLVESGGGLVHAGGSLRLSCAASGITFYLYTMGWYRQAPGKERELVATITSGASTSYADSVKGRFTISRDNAKNTFYLQMNSLNPEDTAVYYCAARRTRVTGRYSVYAFDYWGQGTQVTVSS,low polyreactivity
15,QDQLVESGGGLVQAGGSLRLSCAASGRTFRSYVMGWYRQAPGKERELVAAITTSGGSTYYADSVKGRFTISRDNAKNTVYLQMNSLKPEDTAVYYCAAEYYTYTGHYDSWYGDDYWGQGTQVTVSS,high polyreactivity
16,QVQLVESGGGLVQAGGSLRLSCAASGSIFYPYAMGWYRQAPGKERELVASITINDGSTYYADSVKGRFTISRDNAKNTVYLQMNSLKTEDTSVYYCNVEPVPGFGSEYEYWGQGTQVTVSS,low polyreactivity
17,QVQLVESGGGLVQAGGSLRLSCAASGSTFVYYDMGWYRQAPGQERELVATINGSGSRTNYADSVKGRFTISRDYAKNTVYLQMNSLKPEDTAVYYCAADYISYLVAGGYEDDYWGQVTQVTVSS,low polyreactivity
18,QVQLVESGGGLVQAGGSLRLSCAASGNTLWRNAMGWSRQAPGKERELVATISSVGTYYADSVKGRFTISRDNAKNTVYLQMNSLKPEDTAVYYCAARIWAFYSRRYYWGQGTQVTVSS,high polyreactivity
19,QVQLVESGGGLVQAGGSLRLICAASGSTFNVYAMGWYIPAPGKERELVASIRTSGTRTYYADSVKGRFTISRDNAKNNVYLQMNSLKPEDTAVYYCNARYYSNLRRHGGYWGQGTQVTVSS,high polyreactivity
20,QVQLVESGGGLVQAGGSLRLSCAASGRIFTRYAMGWYRQATGKERELVAAISSGGGNTYYADSVKGRFTISRDNAKNTVYLQMNSLKPEDTAVYYCAALRSWRKTGGAQRYWYDYWGQGTQVTVSS,high polyreactivity
21,QVQLVESGGGLVQAGGSLRLSCAASGFTFYGNAMGSSRQAPGKEREWVAAITSTGNTYYADSVTGRFTISRDNAKNTVYLQMNSLKPEDTAVYYCARRGDILYDYWGQGTQVTVSS,low polyreactivity

row,Sequence,polyreactivity (PSR sort gate)
1,QVQLVESGGGLVQAGGSLRLSCAASGGTIHSYAMGLYRQANGKERDLVAAISGSGGSTYYADSVKGRFTISRDNAKNTFYLQMNSLKPEDTAVYYCAARDWGDGSEYYYWGQGTQVTVSS,high polyreactivity
2,QVQLVESGGGIVQAGGSLRLSCAASGSTFDVNAMGWYRQAPGKERELVAAISWNSGSTYYADSVKGRFTISRDNAKNTVYLQMNSLKPEDTAVYYCAATYGTGRRSKYGYWGQGTQVTVSS,high polyreactivity
3,QVQLVESGGGLVQAGGSLRLSCAASGRIFRYNAMGWYRQAPGKERELVASISSSGGSTYYADSVKGRFTISRDTAKNTVYLQMNCLKPEDTAVYYCSAYPGDRHSRINLGYWGQGTQVTVSS,high polyreactivity
4,QVQLVESGGGLVQAGGSLRLSCAASGLIFRRYVMGWYRQAPGKERELVAAITSRGTRTYYADSVKGRFTISRDNAKNTVYLQMNSLKPEDTAVYYCAADGGISAGANSGYDYWGQGTQVTVSS,high polyreactivity
5,QVQLVESGGGLVQAGGSLRLSCAASGRTFYTNVMGWYRQAPGKERELVAAITTSSSRTYYADSVKGRFTISRDNAKNTVYLQMNSLKPEDTAVYYCAARIHGSWSFDYWGQGTQVTVSS,low polyreactivity
6,QVQLVESGGGLVQAGGSLRLSCAASGGTFYHNVMGWYRQAPGKERELVAAIRYSGGRTYYADSVKGRFTISRDNAKNTVYLQMNSQKPEDTAVYYCAVRSYYGPFGYWGQGTQVTVSS,high polyreactivity
7,QVQLVESGGGLVQAGGSLRLSCAASGRIYYQYAMGWYRQAPGKERELVAAITRGGNTYYADSVKGRFTISRDNAKNTVYLQMNSLKPEDTAVYYCNARWHTTGYRYDYWGQGTQVTVSS,high polyreactivity
8,QVQLVESGGGLVQAGGSLRLSCAASGLTFSHYAMGWYRQAPGKERELVAGISSRGGNTYYADSVKGRFTISRDYAKNTVYLQMNSLKPEDTAVFYCNAPKPKRAYDYWGQGSQVTVSS,high polyreactivity
9,QVQLVESGGGLVQAGGSLRLSCAASGGIFTNNAMGWYRQAPGKERELVAAITGSGASTYYADSVKGRFTISRDNAKNTVYLQMNSLKPEDTAVYYCAALSKYYAPLSRYDYWGQGTQVTVSS,high polyreactivity
10,QVQLVESGGGLVQAGGSLRLSCAASGRIFNRYAMGWYRQAPGKERELVASISLSGDSTYYADSVKGRFTISRDNAKNTVYLQMNSLKPEDTAVYYCAVEGLGAAVYAGDRYDYWGQGTQVTVSS,low polyreactivity
11,QVQLEESGGGLFQAGGSLRLSCAASGRIFYGYAMGWSRQAPGKEMELVAAISSSGGSTYYADSVKGRFTISRDNAKNTVYLQRNSLKPEDTAVYYCNAKRYRPGYWYDYWGQGTQVTVSS,high polyreactivity
12,QVQLVESGGGLVQAGGSLRLSCAASGRTFLEKAMGWYRPAPGKEREFVAANTYSSGSTFYADSVKGRFTISRDNAKNTVYLQMNSLKPEDTAVYYCAARFWYRHARWYDYWGQGTQVTVSS,high polyreactivity
13,QVQLVESGGGLVQAGGSLRLSCAASGSTFAQYAMGWYRQAPGKEREFVAAITRGGGRTYYADSVKGRFTISRDNAKNSVYLQMNSLKPEDTAVYYCNAVYRYYPFDYWGQGTQVTVSS,high polyreactivity
14,QVQLVESGGGLVQAGGSLRLSCAASGIIFKYYAMGWYRQAPGKERELVAAISWTGDSTYADSVKGRFTISRDNAKNTVYLQMNSLKPEDTAVYYCAVAFRRVRSLGEGYWGQGTQVTVSS,low polyreactivity
15,QDQLVESGGGLVQARGSLRLICSASGFIISDYAMGWSRQAPGEERELVAVITWRSGSTYYADSVKGRFTISRDNAKNTVYLQMNSLKPEDTAVYYCAARYYRNYSQGRRLGYNYWGQGTQVTVSS,high polyreactivity
16,QVQLVESGGGLVQAGGSLRLSCAASGFTFGSYAMGWYRQAPGKERELVAVITRSGRTNYADSVKGRFTISRDNAKNTVYLLMNSLKPEDTAVYYCNADDVDDEVSPDLTEMDYWGQGTQVTVSS,low polyreactivity
17,QVQLVESAGGLVQAGGSLSLSCAASGFIFDGYAMGWYRQAPGKERELVAAINFSGGSTYYADSVKGRFTISRDNAKNTVYLQMNSLKPEDTSVYYCNADLEWYWVQFGYGYWGQGTQVTVSS,low polyreactivity
18,QVQLVDSGGGLVQAGGSLRLSCAASGSILGGNAMGWYRQAPGKERELVAAITFSGGGTYYADSVKGRFTISRDHAKNTVYLQMNSLKPEDTAVYYCAADKDGYTYEFDYWGQGTQVTVSS,low polyreactivity
19,QVQLVESGGGLVQAGGSLRLSCAASGRTFVGYSMGWYRQAPGKEREFVATITSSGRTNYADSVKGRFTISRDNAKNTVYLQMNSLKPEDTAVYYCNAVYGRFVDLRYDYWGHGTQVTVSS,high polyreactivity
20,QVQLVESGGGLVQAGGSLRLSSAASGFTFVTYSKGWNRQATGKERELVAAISIRGGSTYADSVKGRFTISRDNAKNSVYLQMNSLKPEDTAVYSCATGRALEYNYWGQGTQVTVSS,low polyreactivity
